In this experiment the target is T1, endogenous AIF (apoptosis inducing factor) contained in human cell lysates (human, UniProt O95831 55-613, limits assumed).
T1 construct: Endogenous protein in cell lysate; also called AIF contained in the lysate of U2OS cells
Nature of the experiment: co-immunoprecipitation from human cancer cell lysates.

This note sets out measurements from US20160031955A1 (INSERM INSTITUT NATIONAL DE LA SANT ET DE LA RECHERCHE M …, published 2016).

T1 sequence (O95831 55-613 limits assumed): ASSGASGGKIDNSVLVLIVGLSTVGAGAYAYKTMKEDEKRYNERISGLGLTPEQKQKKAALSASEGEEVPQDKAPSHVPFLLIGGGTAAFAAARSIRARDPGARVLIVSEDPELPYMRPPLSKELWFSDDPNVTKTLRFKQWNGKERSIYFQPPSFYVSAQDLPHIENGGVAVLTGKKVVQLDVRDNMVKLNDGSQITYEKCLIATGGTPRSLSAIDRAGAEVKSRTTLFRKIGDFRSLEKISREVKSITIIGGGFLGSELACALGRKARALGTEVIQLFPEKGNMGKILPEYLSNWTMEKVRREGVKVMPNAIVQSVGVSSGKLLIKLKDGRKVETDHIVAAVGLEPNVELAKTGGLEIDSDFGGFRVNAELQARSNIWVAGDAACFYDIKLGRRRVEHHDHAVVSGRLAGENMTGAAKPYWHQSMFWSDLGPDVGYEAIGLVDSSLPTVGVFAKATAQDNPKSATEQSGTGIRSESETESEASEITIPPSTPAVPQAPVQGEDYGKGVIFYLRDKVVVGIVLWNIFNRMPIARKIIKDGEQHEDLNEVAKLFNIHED

B1: CHCHD3 (other, human, UniProt Q9NX63 2-227, looked up)
chain: GGTTSTRRVTFEADENENITVVKGIRLSENVIDRMKESSPSGSKSQRYSGAYGASVSDEELKRRVAEELALEQAKKESEDQKRLKQAKELDRERAAANEQLTRAILRERICSEEERAKAKHLARQLEEKDRVLKKQDAFYKEQLARLEERSSEFYRVTTEQYQKAAEEVEAKFKRYESHPVCADLQAKILQCYRENTHQTLKCSALATQYMHCVNHAKQSMLEKGG
notes: also called a MIA40 family member
For the molecule B1, the binding result is reported as “no binding”.
